Test results taken from US20220221455A1 (GlaxoSmithKline, published 2022).

Target: T1, PE-PilA fusion protein LVL-735 (Haemophilus influenzae)
T1 construct: also called PE-PilA drug substance; PE-PilA DS
T1 chain: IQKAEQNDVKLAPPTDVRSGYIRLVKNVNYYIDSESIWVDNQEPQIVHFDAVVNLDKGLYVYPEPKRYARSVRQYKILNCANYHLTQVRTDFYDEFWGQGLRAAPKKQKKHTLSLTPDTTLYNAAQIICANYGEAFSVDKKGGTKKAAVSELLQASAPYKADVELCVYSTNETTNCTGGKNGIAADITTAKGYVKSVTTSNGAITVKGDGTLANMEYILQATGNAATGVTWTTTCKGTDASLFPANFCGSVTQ
Experiment: HDX-MS, antibody/antigen complex at molar ratio 1:1

B1: PEPilA/3 mAb (antibody, V domains shown)
VH: QGQLQQSGPELVKPGASVKMSCKASGYTFTDYVISWVKQRIGQGLEWIGEIHPGSGSIHYNEKFKGKATLTADKSSNTAYMQLSSLTSEDSAVYFCARRGLRRPWFAYWGQGTLVTVSA
VL: DIVLTQSPASLAVSLGQRATISCRASKSVSTSGYSYMHWFQQKPGQPPKLLIYLASNLESGVPARFSGSGSGTDFTLNIHPVEEEDAATYYCQHSRELPLTFGAGTKLELK
notes: Mouse anti-PilA monoclonal antibody; The isotype appears only as 'optionally an IgG2A' in an embodiment; It was biotinylated when used as detection antibody in the sandwich ELISA; also called mAb PEPilA/3; PilA mAb
- binding result: binds
